# Measured values reported in patent US20070105924A1, “Vigabatrin bioisoteres and related methods of use” (priority 2005, published 2007).
# Legend:
# Assay in all cases: purified protein, by the assay type
# Conditions in all cases: other: substrate of GABA-AT, 1 h incubation, 25° C., pH 8.5
# [1] = test system: NCCCC(=O)O
# [2] = test system: NCCCCc1nnn[nH]1
# Protocol: (§1) After incubation (48 h for the preliminary test, 1 h for determination of kinetic constants), the mixture was quenched with trichloroacetic acid. The resulting [^14C]glutamate was isolated by cation-exchange chromatography, and the DPM (disintegration per minute) value was measured. Controls consisted of the entire incubation mixture with substrates omitted. The substrate kinetic constants kcat and Km were determined by the method of Hanes and Woolf, as referenced above.
# [3] = test system: NCCCc1nnn[nH]1
# Protocol: as §1
# [4] = test system: NCCc1nnn[nH]1
# Protocol: as §1
substance,measurement,setting,value
GABA-AT (Sus scrofa),Km,[1],2400 µM
same,kcat,[1],0.817 s⁻¹
same,kcat/Km,[1],340 M⁻¹ s⁻¹
same,Km,[2],8000 µM
same,kcat,[2],0.693 s⁻¹
same,kcat/Km,[2],86.7 M⁻¹ s⁻¹
same,Km,[3],2400 µM
same,kcat,[3],0.477 s⁻¹
same,kcat/Km,[3],195 M⁻¹ s⁻¹
same,Km,[4],2300 µM
same,kcat,[4],0.265 s⁻¹
same,kcat/Km,[4],115 M⁻¹ s⁻¹
